B1: ANKRD40 (parent)
chain: VRIQNPSLRENDFIEIELDRQELT
B2: TRIM55 (parent)
chain: FQMEKIEHGYENMNHFTVNLNREE

Variants of: B1
Test: protein stability index of a GFP-peptide fusion (GPS, HEK-293T) (PSI 1-6); higher = more stable
Conditions: c terminus: a fixed tail appended
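Also: lentivirally expressed fusions sorted by FACS into six bins by GFP to DsRed ratio, PSI derived from sequencing read proportions per bin multiplied by bin number.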

Variant	protein stability index
VRIQNPSLRENDFIEIELDRQEKT [L23K]	3.69
VRIQNPSLRENDFIEIELDRQENT [L23N]	3.69
VRIQNPSLRENDFIEIELDRQEHT [L23H]	3.92
VRIQNPSLRENDFIEIELDRQEST [L23S]	3.89
VRIQNPSLRENDFIEIELDRQEWT [L23W]	2.42
VRIQNPSLRENDFIEIELDRQECT [L23C]	2.8
VRIQNPSLRENDFIEIELDRQEQT [L23Q]	3.44
VRIQNPSLRENDFIEIELDRQERT [L23R]	3.73
VRIQNPSLRENDFIEIELDRQEMT [L23M]	2.77
VRIQNPSLRENDFIEIELDRQEIT [L23I]	2.45
VRIQNPSLRENDFIEIELDRQETT [L23T]	3.52
VRIQNPSLRENDFIEIELDRQEGT [L23G]	3.99
VRIQNPSLRENDFIEIELDRQEFT [L23F]	2.07
VRIQNPSLRENDFIEIELDRQEET [L23E]	4.27
VRIQNPSLRENDFIEIELDRQEYT [L23Y]	2.48
VRIQNPSLRENDFIEIELDRQEVT [L23V]	2.95
VRIQNPSLRENDFIEIELDRQEAT [L23A]	3.58
VRIQNPSLRENDFIEIELDRQEPT [L23P]	3.26
VRIQNPSLRENDFIEIELDRQEDT [L23D]	4.25
VRIQNPSLRENDFIEIEWDRQELT [L18W]	1.82
VRIQNPSLRENDFIEIEVDRQELT [L18V]	2.85
VRIQNPSLRENDFIEIEQDRQELT [L18Q]	4.7
VRIQNPSLRENDFIEIERDRQELT [L18R]	4.37
VRIQNPSLRENDFIEIESDRQELT [L18S]	4.81
VRIQNPSLRENDFIEIEYDRQELT [L18Y]	3.03

Variant	protein stability index
VRIQNPSLRENDFIEIETDRQELT [L18T]	4.51
VRIQNPSLRENDFIEIELDIQELT [R20I]	2.82
VRIQNPSLRENDFIEIELDQQELT [R20Q]	2.57
VRIQNPSLRENDFIEIELDAQELT [R20A]	2.31
VRIQNPSLRENDFIEIELDTQELT [R20T]	1.78
VRIQNPSLRENDFIEIELDKQELT [R20K]	2.75
VRIQNPSLRENDFIEIELDSQELT [R20S]	2.08
VRIQNPSLRENDFIEIELDLQELT [R20L]	2.81
VRIQNPSLRENDFIEIELDWQELT [R20W]	1.48
VRIQNPSLRENDFIEIELDYQELT [R20Y]	1.84
VRIQNPSLRENDFIEIELDFQELT [R20F]	2.96
VRIQNPSLRENDFIEIELDVQELT [R20V]	2.29
VRIQNPSLRENDFIEIELDNQELT [R20N]	2.77
VRIQNPSLRENDFIEIELDPQELT [R20P]	1.76
VRIQNPSLRENDFIEIELDDQELT [R20D]	2.75
VRIQNPSLRENDFIEIELDMQELT [R20M]	2.92
VRIQNPSLRENDFIEIELDCQELT [R20C]	2.12
VRIQNPSLRENDFIEIELDEQELT [R20E]	2.42
VRIQNPSLRENDFIEIELDHQELT [R20H]	2.32
VRIQNPSLRENDFIEIELDGQELT [R20G]	2.56
VRIQNPSLRENDFIEIELDRQELN [T24N]	2.48
VRIQNPSLRENDFIEIELDRQELQ [T24Q]	3.03
VRIQNPSLRENDFIEIELDRQELH [T24H]	2.63
VRIQNPSLRENDFIEIELDRQELY [T24Y]	1.59
VRIQNPSLRENDFIEIELDRQELE [T24E]	3.16

Variant	protein stability index
VRIQNPSLRENDFIEIELDRQELW [T24W]	1.73
VRIQNPSLRENDFIEIELDRQELC [T24C]	2.14
VRIQNPSLRENDFIEIELDRQELI [T24I]	2.19
VRIQNPSLRENDFIEIELDRQELF [T24F]	1.88
VRIQNPSLRENDFIEIELDRQELK [T24K]	2.3
VRIQNPSLRENDFIEIELDRQELR [T24R]	2.79
VRIQNPSLRENDFIEIELDRQELM [T24M]	2.19
VRIQNPSLRENDFIEIELDRQELL [T24L]	2.09
VRIQNPSLRENDFIEIELDRQELV [T24V]	2.2
VRIQNPSLRENDFIEIELDRQELP [T24P]	2.49
VRIQNPSLRENDFIEIELDRQELS [T24S]	2.85
VRIQNPSLRENDFIEIELDRQELA [T24A]	2.3
VRIQNPSLRENDFIEIELDRQELG [T24G]	2.92
VRIQNPSLRENDFIEIELDRQELD [T24D]	3.24
VRIQNPSLRENDFIEIELHRQELT [D19H]	1.69
VRIQNPSLRENDFIEIELERQELT [D19E]	2.8
VRIQNPSLRENDFIEIELTRQELT [D19T]	1.94
VRIQNPSLRENDFIEIELGRQELT [D19G]	1.8
VRIQNPSLRENDFIEIELPRQELT [D19P]	2.65
VRIQNPSLRENDFIEIELMRQELT [D19M]	1.65
VRIQNPSLRENDFIEIELFRQELT [D19F]	1.56
VRIQNPSLRENDFIEIELSRQELT [D19S]	1.92
VRIQNPSLRENDFIEIELCRQELT [D19C]	1.89
VRIQNPSLRENDFIEIELNRQELT [D19N]	1.94
VRIQNPSLRENDFIEIELWRQELT [D19W]	1.54

Variant	protein stability index
VRIQNPSLRENDFIEIELRRQELT [D19R]	2.41
VRIQNPSLRENDFIEIELYRQELT [D19Y]	1.83
VRIQNPSLRENDFIEIELLRQELT [D19L]	2.22
VRIQNPSLRENDFIEIELQRQELT [D19Q]	2.42
VRIQNPSLRENDFIEIELKRQELT [D19K]	2.24
VRIQNPSLRENDFIEIELIRQELT [D19I]	1.91
VRIQNPSLRENDFIEIELARQELT [D19A]	1.93
VRIQNPSLRENDFIEIELVRQELT [D19V]	1.92
VRIQNPSLRENDFIEIELDRQMLT [E22M]	1.93
VRIQNPSLRENDFIEIELDRQNLT [E22N]	2.34
VRIQNPSLRENDFIEIELDRQCLT [E22C]	1.68
VRIQNPSLRENDFIEIELDRQHLT [E22H]	2.57
VRIQNPSLRENDFIEIELDRQRLT [E22R]	2.65
VRIQNPSLRENDFIEIELDRQKLT [E22K]	2.28
VRIQNPSLRENDFIEIELDRQDLT [E22D]	2.87
VRIQNPSLRENDFIEIELDRQLLT [E22L]	2.61
VRIQNPSLRENDFIEIELDRQTLT [E22T]	2.06
VRIQNPSLRENDFIEIELDRQWLT [E22W]	1.82
VRIQNPSLRENDFIEIELDRQPLT [E22P]	2.34
VRIQNPSLRENDFIEIELDRQYLT [E22Y]	2.37
VRIQNPSLRENDFIEIELDRQGLT [E22G]	1.92
VRIQNPSLRENDFIEIELDRQALT [E22A]	2.36
VRIQNPSLRENDFIEIELDRQSLT [E22S]	2.1
VRIQNPSLRENDFIEIELDRQQLT [E22Q]	1.86
VRIQNPSLRENDFIEIELDRQVLT [E22V]	2.1

Variant	protein stability index
VRIQNPSLRENDFIEIELDRQFLT [E22F]	2.47
VRIQNPSLRENDFIEIELDRQILT [E22I]	2.73
VRIQNPSLRENDFIEIELDRNELT [Q21N]	2.99
VRIQNPSLRENDFIEIELDRTELT [Q21T]	2.47
VRIQNPSLRENDFIEIELDRYELT [Q21Y]	2.32
VRIQNPSLRENDFIEIELDRCELT [Q21C]	2.15
VRIQNPSLRENDFIEIELDRAELT [Q21A]	2.05
VRIQNPSLRENDFIEIELDRFELT [Q21F]	1.77
VRIQNPSLRENDFIEIELDRVELT [Q21V]	1.76
VRIQNPSLRENDFIEIELDRIELT [Q21I]	1.31
VRIQNPSLRENDFIEIELDREELT [Q21E]	2.82
VRIQNPSLRENDFIEIELDRSELT [Q21S]	2.08
VRIQNPSLRENDFIEIELDRGELT [Q21G]	2.32
VRIQNPSLRENDFIEIELDRPELT [Q21P]	2.46
VRIQNPSLRENDFIEIELDRWELT [Q21W]	1.73
VRIQNPSLRENDFIEIELDRMELT [Q21M]	2.01
VRIQNPSLRENDFIEIELDRLELT [Q21L]	1.8
VRIQNPSLRENDFIEIELDRKELT [Q21K]	2.24
VRIQNPSLRENDFIEIELDRHELT [Q21H]	2.12
VRIQNPSLRENDFIEIELDRRELT [Q21R]	2.24
VRIQNPSLRENDFIEIELDRDELT [Q21D]	1.84

Variants of: B2
Test: as above
Conditions: c terminus: a fixed tail appended

Variant	protein stability index
FQMEKIEHGYENMNHRTVNLNREE [F16R]	4.25
FQMEKIEHGYENMNHSTVNLNREE [F16S]	4.41
FQMEKIVHGYENMNHFTVNLNREE [E7V]	1.85
FQMEKILHGYENMNHFTVNLNREE [E7L]	2.46
FQMEKIEHGYENMNHFTVNLEREE [N21E]	3.54
FQMEKIEHGYENKNHFTVNLNREE [M13K]	2.87
FQMEKIEHGYENTNHFTVNLNREE [M13T]	3.36
FQMEKIEHGYENDNHFTVNLNREE [M13D]	3.79
FQMEKIEHGYENGNHFTVNLNREE [M13G]	3.75
FQMEKIEHGYENMNHFLVNLNREE [T17L]	2.31
FQMEKIEHGKENMNHFTVNLNREE [Y10K]	2.82
FQMEKIEHGSENMNHFTVNLNREE [Y10S]	3.44
FQMEKIEHGIENMNHFTVNLNREE [Y10I]	3.14
FQMEKIEHGYENMNKFTVNLNREE [H15K]	3.15
FQMEKIEHGYENMNEFTVNLNREE [H15E]	3.62
FQMEKIEHGYENMNIFTVNLNREE [H15I]	1.99
FQMEKIEHGYENMNRFTVNLNREE [H15R]	3.12
FQMEKIEHGYENMTHFTVNLNREE [N14T]	2.69
FQMEKIEHGYENMCHFTVNLNREE [N14C]	2.29
FQMEKIEHGYENMNHFTVNLNIEE [R22I]	2.4
FQMEKIEHGYENMNHFTVNLNWEE [R22W]	2.59
FQMEKIEHGYENMNHFTVNLNQEE [R22Q]	3.1
FQMEKIEHGYENMNHFTVNLNVEE [R22V]	2.56

Variant	protein stability index
FQMEKIEHGYENMNHFTVNLNGEE [R22G]	2.67
FQMEKIEHGYENMNHFTVNLNMEE [R22M]	2.44
FQMEKIEHFYENMNHFTVNLNREE [G9F]	2.34
FQMEKIEHHYENMNHFTVNLNREE [G9H]	3.22
FGMEKIEHGYENMNHFTVNLNREE [Q2G]	3.7
FQMTKIEHGYENMNHFTVNLNREE [E4T]	2.13
FQMRKIEHGYENMNHFTVNLNREE [E4R]	2.19
FQMDKIEHGYENMNHFTVNLNREE [E4D]	2.76
FQMCKIEHGYENMNHFTVNLNREE [E4C]	2.16
FQMGKIEHGYENMNHFTVNLNREE [E4G]	2.45
FQMEKSEHGYENMNHFTVNLNREE [I6S]	3.18
FQMEKKEHGYENMNHFTVNLNREE [I6K]	3.07
FQMEKNEHGYENMNHFTVNLNREE [I6N]	2.87
FQMEKLEHGYENMNHFTVNLNREE [I6L]	3.44
FQMEKPEHGYENMNHFTVNLNREE [I6P]	3.32
FQMEKIEHGYENMNHFTVRLNREE [N19R]	2.4
FQMEKIEHGYENMNHFTVILNREE [N19I]	2.05
FQMEKIEHGYDNMNHFTVNLNREE [E11D]	2.55
FQMEKIEHGYHNMNHFTVNLNREE [E11H]	1.95
FQMEKIEHGYEEMNHFTVNLNREE [N12E]	3.57
FQMEKIEHGYEGMNHFTVNLNREE [N12G]	2.98
FQMEKIEHGYEFMNHFTVNLNREE [N12F]	2.17
FQMEKIEHGYEWMNHFTVNLNREE [N12W]	1.83

Variant	protein stability index
FQMEKIEHGYENMNHFTVNMNREE [L20M]	2.51
FQMEKIEHGYENMNHFTVNNNREE [L20N]	3.5
VQMEKIEHGYENMNHFTVNLNREE [F1V]	4.19
MQMEKIEHGYENMNHFTVNLNREE [F1M]	4.27
HQMEKIEHGYENMNHFTVNLNREE [F1H]	4.58
FQMEKIEFGYENMNHFTVNLNREE [H8F]	2.09
FQMEKIETGYENMNHFTVNLNREE [H8T]	2.73
FQMERIEHGYENMNHFTVNLNREE [K5R]	2.68
FQMEDIEHGYENMNHFTVNLNREE [K5D]	4.14
FQMEAIEHGYENMNHFTVNLNREE [K5A]	2.9
FQMESIEHGYENMNHFTVNLNREE [K5S]	3.43
FQMEFIEHGYENMNHFTVNLNREE [K5F]	1.7
FQMELIEHGYENMNHFTVNLNREE [K5L]	2.6
FQMEKIEHGYENMNHFTDNLNREE [V18D]	3.94
FQMEKIEHGYENMNHFTINLNREE [V18I]	2.94
FQMEKIEHGYENMNHFTVNLNRSE [E23S]	2.67
FQMEKIEHGYENMNHFTVNLNREM [E24M]	1.57
FQMEKIEHGYENMNHFTVNLNREL [E24L]	3.02
FQMEKIEHGYENMNHFTVNLNREY [E24Y]	1.57
FQNEKIEHGYENMNHFTVNLNREE [M3N]	3.36
FQPEKIEHGYENMNHFTVNLNREE [M3P]	2.91

From the supplement of paper PMC10567573
